Earlier results in article PMC11854596.

Biological target: 53BP1 BRCT (Homo sapiens) (UniProt Q12888)
Sequence (Q12888 1714-1972): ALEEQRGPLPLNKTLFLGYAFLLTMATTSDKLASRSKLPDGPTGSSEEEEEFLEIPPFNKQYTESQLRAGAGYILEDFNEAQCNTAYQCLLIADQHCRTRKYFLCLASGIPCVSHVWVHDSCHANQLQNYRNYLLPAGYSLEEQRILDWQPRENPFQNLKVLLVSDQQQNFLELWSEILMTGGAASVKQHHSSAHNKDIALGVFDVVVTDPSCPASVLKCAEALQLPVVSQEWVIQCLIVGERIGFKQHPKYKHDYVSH

- Kd: 2700 nM
Substance: γH2AX (from UniProt P16104)
